Where a chain is given by its changes, count along the chain named.

T1: SLC20A1 (PIT1) receptor (UniProt Q8WUM9 1-679, limits assumed)
T1 construct: whole, on cells; Endogenous on K562 cells (a human cell line)
T1 sequence (looked up): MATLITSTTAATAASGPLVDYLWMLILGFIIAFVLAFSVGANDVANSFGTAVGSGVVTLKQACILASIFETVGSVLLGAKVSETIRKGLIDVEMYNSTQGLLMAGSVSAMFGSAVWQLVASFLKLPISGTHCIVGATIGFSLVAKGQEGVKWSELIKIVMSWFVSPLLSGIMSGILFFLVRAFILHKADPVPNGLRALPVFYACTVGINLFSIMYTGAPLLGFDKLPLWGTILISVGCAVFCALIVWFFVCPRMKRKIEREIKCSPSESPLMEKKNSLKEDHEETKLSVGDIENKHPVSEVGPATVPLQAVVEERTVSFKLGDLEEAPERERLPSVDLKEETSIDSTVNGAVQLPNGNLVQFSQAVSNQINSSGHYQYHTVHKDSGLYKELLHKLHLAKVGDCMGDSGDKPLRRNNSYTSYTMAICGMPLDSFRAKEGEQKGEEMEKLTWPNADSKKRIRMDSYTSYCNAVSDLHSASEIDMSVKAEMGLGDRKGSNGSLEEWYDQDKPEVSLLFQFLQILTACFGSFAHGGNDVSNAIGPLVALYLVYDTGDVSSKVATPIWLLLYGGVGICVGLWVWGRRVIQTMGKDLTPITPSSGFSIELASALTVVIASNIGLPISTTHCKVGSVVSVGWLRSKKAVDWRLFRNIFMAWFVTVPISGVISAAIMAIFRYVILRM

B1: 40A3 (antibody, V domains shown)
VH: DVQLQESGPDLVKPSQSLSLTCTVTDFSITSDYTWHWVRQFPGNKLEWMAYIHYSGGTNYNPSLRSRISITRDTSKNQFFLHMNSVTTEDTATYYCLYYGSRDAVDYWGQGTSVTVSS
VL: QIVLTQSPAIMSASPGEKVTMTCSTSSSVTYMHWYQQKSGTSPKRWIYDTSKLASGVPARFSGSGSGTSYSLTISSMEAEDAATYYCQQWSSSPYTFGGGTKLEIK
notes: Anti-GALV gp70; One id for the hybridoma supernatant and the recombinant murine IgG2a antibody; also called 40A3-HC / 36H3-LC
B2: 35C11 (antibody, V domains shown)
VH: QVQLQQSGPELVRPGVSVKISCKVSGYTFTDYTMHWVKQSHAKSLEWIGLISTYSGKTNYNQKLKDKATMTVDKSSSTAYMELARLTSEDSAIFYCARGGLRDAMDYWGQGTSVTVSS
VL: DIVLTQSPASLAVSLGQGATISCRASESVDSYGNSFMHWYQQKPGQPPKLLIYRASNLESGIPARFSGSGSGTDFTLTINPVEADDVATYYCLQSNEDPRTFGGGTKLEIK
notes: also called 35C11-HC / 35C11-LC
B3: 8G8 (antibody, V domains shown)
VH: QVQLQQPGAELVRPGSSVKLSCKASGYTFTNYWMDWVKQRPGQGLEWIGNIYPSDSETHYNQNFKDKATLTVDKSSSTAYMQLSSLTSEDSAVYYCARDYYWGQGTTLTVSS
VL: QAVVTQESALTTSPGETVTLTCRSSTGAVTRSNYANWVQEKPDHLFTGLIGGTNNRALGVPARFSGSLIGDKAALTITGAQTEDEAIYFCALWYSNHLVFGGGTKLTVLQ
notes: Anti-GALV gp70; One id for the hybridoma supernatant and the recombinant murine IgG2a antibody; also called 8G8-HC2 / 8G8-LC2
B4: 9G11 (antibody, V domains shown)
VH: B3 VH with N50H, N61I, N63K, S77N
VL: B3 VL with R31T, L58P, N96S, H97Q
notes: Anti-GALV gp70; One id for the hybridoma supernatant and the recombinant murine IgG2a antibody; also called 9G11-HC / 9G11-LC
B5: 2D3 (antibody, V domains shown)
VH: B3 VH with N63K, K65R, S75P
VL: B3 VL with R31T, T82I
notes: Anti-GALV gp70; One id for the hybridoma supernatant and the recombinant murine IgG2a antibody; also called 2D3-HC1 / 2D3-LC1
B6: 9A1 (antibody, V domains shown)
VH: B3 VH with K19R, N31S, N63K
VL: B3 VL with L58P
notes: Anti-GALV gp70; One id for the hybridoma supernatant and the recombinant murine IgG2a antibody; also called 9A1-HC3 / 9A1-LC1
B7: 4F1 (antibody, V domains shown)
VH: B3 VH with N31S, V37M, N50H, N63K, K67R, T78A, Y80F
VL: B3 VL with R31T, L58P
notes: Anti-GALV gp70; One id for the hybridoma supernatant and the recombinant murine IgG2a antibody; also called 4F1-HC / 4F1-LC1
B8: 40A6 (antibody, V domains shown)
VH: EVQLVESGGGLVKPGGSLKLSCAASGFTFSSYVLSWVRQIPEKRLEWVATINSGGSYTYYPDSVKGRFTISRDNAKNTLYLQMSSLRSEDTAIYYCARHLIYYDYDGYYFDTWGQGTSLTVSS
VL: DVVMTQTPLSLPVSLGDQASISCRSSQTLVHSNGNIYLHWYLQKPGQSPKLLIYKVSNRFSGVPDRFSGSGSGTDFTLKISRVETEDLGIYFCSQTTHVPPTFGGGTKLEIK
notes: Anti-GALV gp70; One id for the hybridoma supernatant and the recombinant murine IgG2a antibody; also called 40A6-HC / 40A6-LC
B9: huIgG1 monoFc tagged GALV gp70 protein (residues 505-616) (Fc fusion)
chain: not shown
notes: Residues are numbered according to Uniprot P21415; also called gp70 (505-616); coiled-coil (CC) domain of GALV gp70
B10: huIgG1 monoFc tagged GALV gp70 protein (residues 42-474) (Fc fusion)
chain: TSLQNKNPHQPMTLTWQVLSQTGDVVWDTKAVQPPWTWWPTLKPDVCALAASLESWDIPGTDVSSSKRVRPPDSDYTAAYKQITWGAIGCSYPRARTRMASSTFYVCPRDGRTLSEARRCGGLESLYCKEWDCETTGTGYWLSKSSKDLITVKWDQNSEWTQKFQQCHQTGWCNPLKIDFTDKGKLSKDWITGKTWGLRFYVSGHPGVQFTIRLKITNMPAVAVGPDLVLVEQGPPRTSLALPPPLPPREAPPPSLPDSNSTALATSAQTPTVRKTIVTLNTPPPTTGDRLFDLVQGAFLTLNATNPGATESCWLCLAMGPPYYEAIASSGEVAYSTDLDRCRWGTQGKLTLTEVSGHGLCIGKVPFTHQHLCNQTLSINSSGDHQYLLPSNHSWWACSTGLTPCLSTSVFNQTRDFCIQVQLIPRIYYYPEE
notes: also called gp70 (42-474)
B11: huIgG1 monoFc tagged GALV gp70 protein (residues 42-616) (Fc fusion)
chain: TSLQNKNPHQPMTLTWQVLSQTGDVVWDTKAVQPPWTWWPTLKPDVCALAASLESWDIPGTDVSSSKRVRPPDSDYTAAYKQITWGAIGCSYPRARTRMASSTFYVCPRDGRTLSEARRCGGLESLYCKEWDCETTGTGYWLSKSSKDLITVKWDQNSEWTQKFQQCHQTGWCNPLKIDFTDKGKLSKDWITGKTWGLRFYVSGHPGVQFTIRLKITNMPAVAVGPDLVLVEQGPPRTSLALPPPLPPREAPPPSLPDSNSTALATSAQTPTVRKTIVTLNTPPPTTGDRLFDLVQGAFLTLNATNPGATESCWLCLAMGPPYYEAIASSGEVAYSTDLDRCRWGTQGKLTLTEVSGHGLCIGKVPFTHQHLCNQTLSINSSGDHQYLLPSNHSWWACSTGLTPCLSTSVFNQTRDFCIQVQLIPRIYYYPEEVLLQAYDNSHPRTKREAVSLTLAVLLGLGITAGIGTGSTALIKGPIDLQQGLTSLQIAIDADLRALQDSVSKLEDSLTSLSEVVLQNRRGLDLLFLKEGGLCAALKEECCFYIDHSGAVRDSMKKLKEKLDKRQLERQKSQN
notes: Residues are numbered according to Uniprot P21415; also called gp70 (42-616); RBD+CC domains

The target in the first test is B10. Briefly: BLI Octet Red96; antibody on AMC biosensor, 100 nM monoFc-gp70(42-474) analyte.
For orientation: Kd means the equilibrium constant for the complex coming apart. What is called koff is a measure of how fast the partners let go of each other. The term kon denotes the rate constant with which the complex forms. A high value points to faster complex formation. In turn, B1 yielded a Kd of 0.00524 nM, a koff of 6e-07 s⁻¹ and a kon of 114000 M⁻¹ s⁻¹.
For B2, binding was characterised by a dissociation constant (Kd) of 0.0122 nM, the koff amounted to 6.29e-07 s⁻¹ and the kon worked out at 51500 M⁻¹ s⁻¹.
On the same counts, the results for B3 are 0.193 nM, 6.31e-05 s⁻¹ and 328000 M⁻¹ s⁻¹.
Molecule B4 returned a Kd of 0.704 nM, a koff of 0.000257 s⁻¹ and an on-rate (kon) of 366000 M⁻¹ s⁻¹.
The molecule B5 gave a Kd of 1.71 nM, a dissociation rate constant (koff) of 0.00048 s⁻¹ and a kon of 281000 M⁻¹ s⁻¹.
In the case of B6, the equilibrium dissociation constant (Kd) was found to be 1.4 nM, the koff turned out to be 0.000447 s⁻¹ and the on-rate constant (kon) stood at 318000 M⁻¹ s⁻¹.
In the case of B7, the Kd was 1.69 nM, the koff turned out to be 0.000607 s⁻¹ and the kon stood at 359000 M⁻¹ s⁻¹.
On the same counts, the results for B8 are 0.0175 nM, 6.72e-07 s⁻¹ and 38300 M⁻¹ s⁻¹.

The next test deals with B9. Kind of test: indirect ELISA, hybridoma supernatant on coated monoFc-tagged gp70 (505-616).
Consider B1, for which the binding result is “no binding”.
Take B4: the binding result is “no binding”.
Take B7: the binding result is “no binding”.

A further test concerns the target T1, SLC20A1 (PIT1) receptor. Briefly: flow cytometry, monoFc-tagged gp70 (505-616) on K562 cells (endogenous SLC20A1), PE anti-human Fc secondary.
As to B9, the binding result was “no binding (tested: 10.00 ug/100ul)”.

Another test addresses T1, SLC20A1 (PIT1) receptor. Briefly: flow cytometry, monoFc-tagged gp70 protein on K562 cells (endogenous SLC20A1), PE anti-human Fc secondary; CHO as negative cells. On the technique in general: Flow cytometry measures light scatter and fluorescence of single cells or particles in a stream.
For the molecule B10, the binding result is reported as “binds”.
Take B11: the binding result was “binds”.

These data come from patent US20240343820A1 (KITE PHARMA, published 2024).
